Source: patent CN112979797A (CHINESE ACAD INSPECTION & QUARANTINE, dated 2021)

Target: T1, 原核表达的带HIS标签的重组蛋白SBV-N (SBV, UniProt H2AM13 1-233)
T1 sequence: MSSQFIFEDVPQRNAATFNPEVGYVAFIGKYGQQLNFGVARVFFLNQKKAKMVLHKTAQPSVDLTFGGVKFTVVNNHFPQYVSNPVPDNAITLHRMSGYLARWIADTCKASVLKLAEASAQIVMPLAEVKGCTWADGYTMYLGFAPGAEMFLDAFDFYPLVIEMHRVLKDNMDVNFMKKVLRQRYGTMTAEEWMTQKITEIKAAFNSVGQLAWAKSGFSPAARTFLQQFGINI
Experiment: Western blot, hybridoma supernatant on His-tagged recombinant protein

B1: 单克隆抗体2D3 (antibody, V domains shown)
VH: EVQLQQSKTELVRSGASVKLSCTASGFNIKDYFIHWVKQRPEQGLEWIGWIDPENGDTEYAPKFQGKATMTADTSSNTAYLQLGSLTSEDTAVYYCYSRGWHLENLEYWGQGTTLTVSS
VL: DVLMTQTPLSLPVSLGDQASISCRSSQSIVHSNGNTYLEWYLQKPGQSPKLLIYKVSNRFSGVPDRFSGSGSGTDFTLKISRVEAEDLGVYYCFQGSHVPRTFGGGTKLEIKR
notes: also called 2D3单抗; 2D3抗体
**Q.** Does B1 bind?
**A.** no binding
